Data: patent publication US20180022780A1 (Bayer, published 2018)
Bridge positions count the residues as written; N and C are the ends. Square brackets hold non-standard residues; d marks the D form. Ends that are not written are not given here. Dab = NCC[C@H](N)C(=O)O

B1: [G^14, (Dab^16, E^21)lac]ADM(14-52) (peptide)
peptide: GG[Dab]RFGTETVQKLAHQIYQFTDKDKDNVAPRSKISPQGY-NH2
modifications: lactam 3-8; N-terminus assumed
SMILES: CC[C@H](C)[C@H](NC(=O)[C@H](CCC(N)=O)NC(=O)[C@H](Cc1c[nH]cn1)NC(=O)[C@H](C)NC(=O)[C@H](CC(C)C)NC(=O)[C@H](CCCCN)NC(=O)[C@H](CCC(N)=O)NC(=O)[C@@H](NC(=O)[C@@H](NC(=O)[C@@H]1CCC(=O)NCC[C@H](NC(=O)CNC(=O)CN)C(=O)N[C@@H](CCCNC(=N)N)C(=O)N[C@@H](Cc2ccccc2)C(=O)NCC(=O)N[C@@H]([C@@H](C)O)C(=O)N1)[C@@H](C)O)C(C)C)C(=O)N[C@@H](Cc1ccc(O)cc1)C(=O)N[C@@H](CCC(N)=O)C(=O)N[C@@H](Cc1ccccc1)C(=O)N[C@H](C(=O)N[C@@H](CC(=O)O)C(=O)N[C@@H](CCCCN)C(=O)N[C@@H](CC(=O)O)C(=O)N[C@@H](CCCCN)C(=O)N[C@@H](CC(=O)O)C(=O)N[C@@H](CC(N)=O)C(=O)N[C@H](C(=O)N[C@@H](C)C(=O)N1CCC[C@H]1C(=O)N[C@@H](CCCNC(=N)N)C(=O)N[C@@H](CO)C(=O)N[C@@H](CCCCN)C(=O)N[C@H](C(=O)N[C@@H](CO)C(=O)N1CCC[C@H]1C(=O)N[C@@H](CCC(N)=O)C(=O)NCC(=O)N[C@@H](Cc1ccc(O)cc1)C(N)=O)[C@@H](C)CC)C(C)C)[C@@H](C)O
B2: [G^14, (E^16, Dab^21)lac]ADM(14-52) (peptide)
peptide: GGERFGT[Dab]TVQKLAHQIYQFTDKDKDNVAPRSKISPQGY-NH2
modifications: lactam 3-8
B3: [G^14, (E^16, K^21)lac]ADM(14-52) (peptide)
peptide: GGERFGTKTVQKLAHQIYQFTDKDKDNVAPRSKISPQGY-NH2
modifications: lactam 3-8; N-terminus assumed
SMILES: CC[C@H](C)[C@H](NC(=O)[C@H](CCC(N)=O)NC(=O)[C@H](Cc1c[nH]cn1)NC(=O)[C@H](C)NC(=O)[C@H](CC(C)C)NC(=O)[C@H](CCCCN)NC(=O)[C@H](CCC(N)=O)NC(=O)[C@@H](NC(=O)[C@@H](NC(=O)[C@@H]1CCCCNC(=O)CC[C@H](NC(=O)CNC(=O)CN)C(=O)N[C@@H](CCCNC(=N)N)C(=O)N[C@@H](Cc2ccccc2)C(=O)NCC(=O)N[C@@H]([C@@H](C)O)C(=O)N1)[C@@H](C)O)C(C)C)C(=O)N[C@@H](Cc1ccc(O)cc1)C(=O)N[C@@H](CCC(N)=O)C(=O)N[C@@H](Cc1ccccc1)C(=O)N[C@H](C(=O)N[C@@H](CC(=O)O)C(=O)N[C@@H](CCCCN)C(=O)N[C@@H](CC(=O)O)C(=O)N[C@@H](CCCCN)C(=O)N[C@@H](CC(=O)O)C(=O)N[C@@H](CC(N)=O)C(=O)N[C@H](C(=O)N[C@@H](C)C(=O)N1CCC[C@H]1C(=O)N[C@@H](CCCNC(=N)N)C(=O)N[C@@H](CO)C(=O)N[C@@H](CCCCN)C(=O)N[C@H](C(=O)N[C@@H](CO)C(=O)N1CCC[C@H]1C(=O)N[C@@H](CCC(N)=O)C(=O)NCC(=O)N[C@@H](Cc1ccc(O)cc1)C(N)=O)[C@@H](C)CC)C(C)C)[C@@H](C)O
B4: PAM[K^14, (C^16→U^21)]ADM(14-52) (peptide)
peptide: KGCRFGTXTVQKLAHQIYQFTDKDKDNVAPRSKISPQGY
modifications: palmitic acid (PAM) on the N-terminus (alpha-amine of K14); positions 16 and 21 (residues 3 and 8 of the letters) together are cystathionine (C^16→U^21, thioether); X stands for the printed U at 21; C-terminal amide
B5: [K^14(PAM), (C^16→U^21)]ADM(14-52) (peptide)
peptide: B4 peptide
modifications: palmitic acid (PAM) on the side chain of K14 (residue 1 of the letters); positions 16 and 21 (residues 3 and 8) together are cystathionine (C^16→U^21, thioether); X stands for the printed U at 21; C-terminal amide

Target: human adrenomedullin-receptor (human, UniProt Q16602 23-461)
Test: cell-based or functional assay

Sequence of human adrenomedullin-receptor (Q16602 23-461): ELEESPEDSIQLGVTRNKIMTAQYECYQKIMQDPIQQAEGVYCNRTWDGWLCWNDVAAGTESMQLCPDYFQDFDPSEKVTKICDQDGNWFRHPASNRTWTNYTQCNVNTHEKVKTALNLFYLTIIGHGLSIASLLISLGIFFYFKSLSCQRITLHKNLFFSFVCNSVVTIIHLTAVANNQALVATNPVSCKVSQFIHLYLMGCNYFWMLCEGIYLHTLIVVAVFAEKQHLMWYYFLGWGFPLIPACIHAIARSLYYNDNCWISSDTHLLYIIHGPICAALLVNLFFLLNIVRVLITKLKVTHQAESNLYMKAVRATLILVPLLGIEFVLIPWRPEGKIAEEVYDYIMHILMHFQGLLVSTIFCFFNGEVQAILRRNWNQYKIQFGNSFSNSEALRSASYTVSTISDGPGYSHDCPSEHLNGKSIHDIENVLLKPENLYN

Binder	EC50 [nM], aequorin luminescence of CHO adrenomedullin-receptor reporter cells
B1	34 nM
B2	19.6 nM
B3	20.5 nM
B4	11 nM
B5	24 nM

Target: CLR fused to EYFP with RAMP2 fused to ECFP
Test: cell-based or functional assay

Sequence of CLR fused to EYFP with RAMP2 fused to ECFP (Q16602 whole entry, chain 1 of 2, the tested form may be a part): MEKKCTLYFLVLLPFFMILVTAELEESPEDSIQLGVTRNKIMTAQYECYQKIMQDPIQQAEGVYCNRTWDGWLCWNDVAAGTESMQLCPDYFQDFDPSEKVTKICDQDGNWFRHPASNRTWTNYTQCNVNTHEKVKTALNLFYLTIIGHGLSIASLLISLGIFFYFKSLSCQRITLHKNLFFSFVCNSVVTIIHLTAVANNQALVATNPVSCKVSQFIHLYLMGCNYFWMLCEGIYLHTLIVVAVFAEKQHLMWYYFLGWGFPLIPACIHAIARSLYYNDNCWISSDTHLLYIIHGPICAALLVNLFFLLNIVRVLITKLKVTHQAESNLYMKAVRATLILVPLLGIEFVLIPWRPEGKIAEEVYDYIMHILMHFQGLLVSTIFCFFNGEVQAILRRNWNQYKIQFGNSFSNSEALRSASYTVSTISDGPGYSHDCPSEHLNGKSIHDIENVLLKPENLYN
Sequence of CLR fused to EYFP with RAMP2 fused to ECFP (O60895 whole entry, chain 2 of 2, further chain, the tested form may be a part): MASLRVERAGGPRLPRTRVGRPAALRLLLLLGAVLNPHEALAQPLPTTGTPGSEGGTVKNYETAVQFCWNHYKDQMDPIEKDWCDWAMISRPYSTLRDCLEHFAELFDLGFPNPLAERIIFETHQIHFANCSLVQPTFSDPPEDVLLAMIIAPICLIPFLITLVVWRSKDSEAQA

Binder	EC50 [nM], cAMP assay (CRE-luciferase luminescence, HEK293 cells)
B1	84 nM
B2	41 nM
B3	31 nM
